Measurements: patent US11230581B2, “Peptides and combination of peptides for use in immunotherapy against ovarian cancer and other cancers” (Immatics Biotechnologies GmbH, priority 2015, dated 2022)

These substances were tested against HLA-A*02:01 (Homo sapiens, UniProt P04439, D140Y/D185E/D98H/E176V/E277Q/G131W/G231S/I119V/I121R/I166T/I218V/L300P/L318F/N151K/N90K/P208A/P217A/Q86G/Q94H/R138H/R169H/T345S) (assay: MHC binding assay (UV-ligand exchange, β2m ELISA, peptide exchange yield)). Conditions: binding of HLA-class I restricted peptides to HLA-A*02:01, UV-ligand exchange.
Outline: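 Peptide-MHC complexes formed by UV-ligand exchange, cleaving a UV-sensitive placeholder peptide in favour of the test peptide. Exchange yield measured by ELISA: monomers diluted 100-fold onto streptavidin-coated plates, 1 h 37 °C, detected with 2 ug/ml HRP anti-β2m and TMB, absorbance at 450 nm.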

Substance	Peptide exchange (MHC class I binding score, peptide exchange yield)
389 (LLADVTHLL; listed as Homo sapiens) [compound 389]	“++” (≥20% = ++)
390 (ALFMKQIYL; listed as Homo sapiens) [compound 390]	“+++” (≥50 = +++)
391 (YVYPQRLNFV; listed as Homo sapiens) [compound 391]	“+++” (≥50 = +++)
392 (ALLHPQGFEV; listed as Homo sapiens) [compound 392]	“++” (≥20% = ++)
393 (GLLDTQTSQVLTA; listed as Homo sapiens) [compound 393]	“++” (≥20% = ++)
394 (LLAVIGGLVYL; listed as Homo sapiens) [compound 394]	“+++” (≥50 = +++)
395 (ALALGGIAVV; listed as Homo sapiens) [compound 395]	“++++” (≥75% = ++++)
396 (ALLPDLPAL; listed as Homo sapiens) [compound 396]	“+++” (≥50 = +++)
397 (YLFGERLLEC; listed as Homo sapiens) [compound 397]	“+++” (≥50 = +++)
398 (KLLEEDGTIITL; listed as Homo sapiens) [compound 398]	“++” (≥20% = ++)
399 (YLFEPLYHV; listed as Homo sapiens) [compound 399]	“+++” (≥50 = +++)
400 (SLLTEQDLWTV; listed as Homo sapiens) [compound 400]	“++” (≥20% = ++)
401 (ILLDDTGLAYI; listed as Homo sapiens) [compound 401]	“+++” (≥50 = +++)
402 (VLFSGALLGL; listed as Homo sapiens) [compound 402]	“++” (≥20% = ++)
403 (KLYDRILRV; listed as Homo sapiens) [compound 403]	“++” (≥20% = ++)
405 (ALYDVFLEV; listed as Homo sapiens) [compound 405]	“++” (≥20% = ++)
407 (YLMDLINFL; listed as Homo sapiens) [compound 407]	“+++” (≥50 = +++)
408 (VLDDSIYLV; listed as Homo sapiens) [compound 408]	“++” (≥20% = ++)
409 (LLDAMNYHL; listed as Homo sapiens) [compound 409]	“++” (≥20% = ++)
412 (YLDDLNEGVYI; listed as Homo sapiens) [compound 412]	“++” (≥20% = ++)
426 (RLADKSVLV; listed as Homo sapiens) [compound 426]	“+++” (≥50 = +++)
427 (ALLPLSPYL; listed as Homo sapiens) [compound 427]	“+++” (≥50 = +++)
428 (KLGHTDILVGV; listed as Homo sapiens) [compound 428]	“++” (≥20% = ++)
429 (GLVNDLARV; listed as Homo sapiens) [compound 429]	“++” (≥20% = ++)
430 (HLYSSIEHLTT; listed as Homo sapiens) [compound 430]	“+++” (≥50 = +++)

More lines, now with the values ahead:

Peptide exchange (MHC class I binding score, peptide exchange yield)	Substance
“++” (≥20% = ++)	431 (SLVNVVPKL; listed as Homo sapiens) [compound 431]
“++” (≥20% = ++)	432 (TLIEESAKV; listed as Homo sapiens) [compound 432]
“+++” (≥50 = +++)	433 (AMLNEPWAV; listed as Homo sapiens) [compound 433]
“++” (≥20% = ++)	434 (KVSNSGITRV; listed as Homo sapiens) [compound 434]
“+++” (≥50 = +++)	436 (HLAEVSAEV; listed as Homo sapiens) [compound 436]
“+++” (≥50 = +++)	437 (SMAPGLVIQAV; listed as Homo sapiens) [compound 437]
“++++” (≥75% = ++++)	438 (KLLPLAGLYL; listed as Homo sapiens) [compound 438]
“+++” (≥50 = +++)	439 (YLLQEIYGI; listed as Homo sapiens) [compound 439]
“++” (≥20% = ++)	440 (ALADGVTMQV; listed as Homo sapiens) [compound 440]
“+++” (≥50 = +++)	441 (ALLENPKMEL; listed as Homo sapiens) [compound 441]
“+++” (≥50 = +++)	442 (GLLGGGGVLGV; listed as Homo sapiens) [compound 442]
“+++” (≥50 = +++)	443 (GLWEIENNPTV; listed as Homo sapiens) [compound 443]
“+++” (≥50 = +++)	444 (GLLRDEALAEV; listed as Homo sapiens) [compound 444]
“+++” (≥50 = +++)	446 (QLIPALAKV; listed as Homo sapiens) [compound 446]
“++” (≥20% = ++)	447 (QLVPALAKV; listed as Homo sapiens) [compound 447]
“+++” (≥50 = +++)	448 (NLLETKLQL; listed as Homo sapiens) [compound 448]
“+++” (≥50 = +++)	449 (KLAEGLDIQL; listed as Homo sapiens) [compound 449]
“+++” (≥50 = +++)	450 (FMIDASVHPTL; listed as Homo sapiens) [compound 450]
“++” (≥20% = ++)	451 (LLLLDTVTMQV; listed as Homo sapiens) [compound 451]
“+++” (≥50 = +++)	452 (ILLEHGADPNL; listed as Homo sapiens) [compound 452]
“++” (≥20% = ++)	453 (KLLEATSAV; listed as Homo sapiens) [compound 453]
“+++” (≥50 = +++)	454 (KLPPPPPQA; listed as Homo sapiens) [compound 454]
“++” (≥20% = ++)	455 (SLLKEPQKVQL; listed as Homo sapiens) [compound 455]
“+++” (≥50 = +++)	456 (LLIGHLERV; listed as Homo sapiens) [compound 456]
“+++” (≥50 = +++)	457 (SLLPGNLVEKV; listed as Homo sapiens) [compound 457]
